From the Human Domainome abundance scans (Beltran et al. 2025) come the findings set out here.

± gives the uncertainty stated by the source.

The data set in a line: abundance fitness (aPCA) (normalised: wild type 0, dead -1); higher = more abundant; growth selection in yeast, the domain comes from the species named. The note with it: Homo sapiens.
Take “Scaffold attachment factor B1 K62I, Q15424”: the abundance fitness was -0.336 ± 0.078.

For “Scaffold attachment factor B1 K62L, Q15424”, the abundance fitness was -0.204 ± 0.054.

Take “Scaffold attachment factor B1 K62M, Q15424”: the abundance fitness is -0.254 ± 0.078.

For “Scaffold attachment factor B1 K62N, Q15424”, the abundance fitness was -0.231 ± 0.096.

In the case of “Scaffold attachment factor B1 K62P, Q15424”, the abundance fitness was -0.728 ± 0.065.

“Scaffold attachment factor B1 K62R, Q15424” showed an abundance fitness of -0.089 ± 0.048.

On to “Scaffold attachment factor B1 K62T, Q15424”, for which the abundance fitness was -0.212 ± 0.072.

Substance “Scaffold attachment factor B1 K62V, Q15424” came in with an abundance fitness of -0.246 ± 0.052.

In turn, “Scaffold attachment factor B1 K62W, Q15424” showed an abundance fitness of -0.366 ± 0.065.

As for “Scaffold attachment factor B1 K62Y, Q15424”, the abundance fitness is -0.285 ± 0.087.

For the substance “Scaffold attachment factor B1 K63A, Q15424”, the abundance fitness is -0.202 ± 0.053.

Turning to “Scaffold attachment factor B1 K63C, Q15424”, the abundance fitness is -0.234 ± 0.048.

In turn, “Scaffold attachment factor B1 K63D, Q15424” yielded an abundance fitness of -0.255 ± 0.094.

Consider “Scaffold attachment factor B1 K63F, Q15424”, for which the abundance fitness was -0.432 ± 0.061.

Take “Scaffold attachment factor B1 K63H, Q15424”: the abundance fitness was -0.541 ± 0.1.

In turn, “Scaffold attachment factor B1 K63I, Q15424” came in with an abundance fitness of -0.394 ± 0.09.

With “Scaffold attachment factor B1 K63L, Q15424”, the abundance fitness is -0.237 ± 0.044.

With “Scaffold attachment factor B1 K63M, Q15424”, the abundance fitness is -0.43 ± 0.07.

“Scaffold attachment factor B1 K63P, Q15424” had an abundance fitness of -0.61 ± 0.054.

“Scaffold attachment factor B1 K63Q, Q15424” displayed an abundance fitness of -0.085 ± 0.079.

For the substance “Scaffold attachment factor B1 K63R, Q15424”, the abundance fitness was -0.144 ± 0.055.

As to “Scaffold attachment factor B1 K63T, Q15424”, the abundance fitness is -0.238 ± 0.081.

“Scaffold attachment factor B1 K63V, Q15424” yielded an abundance fitness of -0.185 ± 0.056.

In turn, “Scaffold attachment factor B1 K63W, Q15424” yielded an abundance fitness of -0.398 ± 0.057.

Take “Scaffold attachment factor B1 K63Y, Q15424”: the abundance fitness is -0.42 ± 0.067.

“Scaffold attachment factor B1 L31A, Q15424” showed an abundance fitness of -0.333 ± 0.069.

The substance “Scaffold attachment factor B1 L31C, Q15424” returned an abundance fitness of -0.553 ± 0.069.

For “Scaffold attachment factor B1 L31D, Q15424”, the abundance fitness is -0.498 ± 0.075.

Consider “Scaffold attachment factor B1 L31E, Q15424”, for which the abundance fitness was -0.496 ± 0.076.

For “Scaffold attachment factor B1 L31F, Q15424”, the abundance fitness was -0.417 ± 0.098.

Turning to “Scaffold attachment factor B1 L31G, Q15424”, the abundance fitness is -0.536 ± 0.06.

Take “Scaffold attachment factor B1 L31H, Q15424”: the abundance fitness is -0.575 ± 0.072.

Substance “Scaffold attachment factor B1 L31I, Q15424” returned an abundance fitness of -0.17 ± 0.06.

“Scaffold attachment factor B1 L31K, Q15424” gave an abundance fitness of -0.66 ± 0.093.

The substance “Scaffold attachment factor B1 L31M, Q15424” registered an abundance fitness of -0.338 ± 0.087.

With “Scaffold attachment factor B1 L31P, Q15424”, the abundance fitness was -0.748 ± 0.071.

Consider “Scaffold attachment factor B1 L31Q, Q15424”, for which the abundance fitness was -0.623 ± 0.08.

“Scaffold attachment factor B1 L31R, Q15424” showed an abundance fitness of -0.509 ± 0.051.

Regarding “Scaffold attachment factor B1 L31S, Q15424”, the abundance fitness is -0.547 ± 0.068.

With “Scaffold attachment factor B1 L31T, Q15424”, the abundance fitness is -0.53 ± 0.1.

For “Scaffold attachment factor B1 L31V, Q15424”, the abundance fitness is -0.188 ± 0.06.

Consider “Scaffold attachment factor B1 L31W, Q15424”, for which the abundance fitness was -0.628 ± 0.052.

Take “Scaffold attachment factor B1 L31Y, Q15424”: the abundance fitness was -0.471 ± 0.07.

Regarding “Scaffold attachment factor B1 L34A, Q15424”, the abundance fitness is -0.482 ± 0.064.

Consider “Scaffold attachment factor B1 L34C, Q15424”, for which the abundance fitness was -0.321 ± 0.079.

“Scaffold attachment factor B1 L34D, Q15424” registered an abundance fitness of -0.632 ± 0.081.

For “Scaffold attachment factor B1 L34E, Q15424”, the abundance fitness was -0.719 ± 0.084.

Take “Scaffold attachment factor B1 L34F, Q15424”: the abundance fitness was -0.212 ± 0.06.

Turning to “Scaffold attachment factor B1 L34G, Q15424”, the abundance fitness was -0.576 ± 0.056.

The substance “Scaffold attachment factor B1 L34I, Q15424” came in with an abundance fitness of -0.433 ± 0.096.

In turn, “Scaffold attachment factor B1 L34M, Q15424” came in with an abundance fitness of -0.067 ± 0.083.

Substance “Scaffold attachment factor B1 L34N, Q15424” registered an abundance fitness of -0.496 ± 0.078.

For the substance “Scaffold attachment factor B1 L34P, Q15424”, the abundance fitness is -0.619 ± 0.074.

Substance “Scaffold attachment factor B1 L34Q, Q15424” had an abundance fitness of -0.527 ± 0.087.

In turn, “Scaffold attachment factor B1 L34R, Q15424” gave an abundance fitness of -0.554 ± 0.053.

For “Scaffold attachment factor B1 L34S, Q15424”, the abundance fitness was -0.433 ± 0.065.

For “Scaffold attachment factor B1 L34T, Q15424”, the abundance fitness was -0.452 ± 0.066.

Regarding “Scaffold attachment factor B1 L34V, Q15424”, the abundance fitness was -0.738 ± 0.058.

“Scaffold attachment factor B1 L34W, Q15424”: the abundance fitness is -0.375 ± 0.075.

The substance “Scaffold attachment factor B1 L34Y, Q15424” registered an abundance fitness of -0.316 ± 0.056.

Substance “Scaffold attachment factor B1 L39A, Q15424” yielded an abundance fitness of -0.556 ± 0.062.

In turn, “Scaffold attachment factor B1 L39C, Q15424” gave an abundance fitness of -0.745 ± 0.074.

“Scaffold attachment factor B1 L39D, Q15424” had an abundance fitness of -1.12 ± 0.13.

The substance “Scaffold attachment factor B1 L39E, Q15424” displayed an abundance fitness of -0.753 ± 0.06.

In turn, “Scaffold attachment factor B1 L39F, Q15424” registered an abundance fitness of -0.665 ± 0.089.

Take “Scaffold attachment factor B1 L39G, Q15424”: the abundance fitness is -0.814 ± 0.052.

“Scaffold attachment factor B1 L39H, Q15424” had an abundance fitness of -0.766 ± 0.12.

The substance “Scaffold attachment factor B1 L39I, Q15424” had an abundance fitness of -0.264 ± 0.1.

The substance “Scaffold attachment factor B1 L39K, Q15424” gave an abundance fitness of -0.996 ± 0.072.

For the substance “Scaffold attachment factor B1 L39M, Q15424”, the abundance fitness is -0.304 ± 0.076.

Take “Scaffold attachment factor B1 L39N, Q15424”: the abundance fitness is -0.87 ± 0.066.

With “Scaffold attachment factor B1 L39P, Q15424”, the abundance fitness was -0.77 ± 0.1.

For the substance “Scaffold attachment factor B1 L39Q, Q15424”, the abundance fitness was -0.764 ± 0.072.

“Scaffold attachment factor B1 L39R, Q15424”: the abundance fitness is -0.894 ± 0.05.

Consider “Scaffold attachment factor B1 L39S, Q15424”, for which the abundance fitness was -0.877 ± 0.056.

“Scaffold attachment factor B1 L39T, Q15424” gave an abundance fitness of -0.983 ± 0.091.

With “Scaffold attachment factor B1 L39Y, Q15424”, the abundance fitness was -0.824 ± 0.093.

The substance “Scaffold attachment factor B1 L43A, Q15424” registered an abundance fitness of -0.225 ± 0.066.

In turn, “Scaffold attachment factor B1 L43C, Q15424” came in with an abundance fitness of -0.123 ± 0.068.

Regarding “Scaffold attachment factor B1 L43D, Q15424”, the abundance fitness is -0.858 ± 0.1.

In the case of “Scaffold attachment factor B1 L43E, Q15424”, the abundance fitness is -0.761 ± 0.08.

For the substance “Scaffold attachment factor B1 L43F, Q15424”, the abundance fitness was -1.21 ± 0.073.

With “Scaffold attachment factor B1 L43G, Q15424”, the abundance fitness is -0.752 ± 0.05.

Consider “Scaffold attachment factor B1 L43I, Q15424”, for which the abundance fitness was -1.02 ± 0.091.

“Scaffold attachment factor B1 L43K, Q15424” came in with an abundance fitness of -0.9 ± 0.095.

Substance “Scaffold attachment factor B1 L43M, Q15424” returned an abundance fitness of -0.402 ± 0.075.

On to “Scaffold attachment factor B1 L43N, Q15424”, for which the abundance fitness is -0.936 ± 0.13.

Turning to “Scaffold attachment factor B1 L43P, Q15424”, the abundance fitness was -1.1 ± 0.11.

Regarding “Scaffold attachment factor B1 L43Q, Q15424”, the abundance fitness is -0.911 ± 0.063.

Substance “Scaffold attachment factor B1 L43S, Q15424” displayed an abundance fitness of -0.653 ± 0.059.

Consider “Scaffold attachment factor B1 L43V, Q15424”, for which the abundance fitness was -0.714 ± 0.06.

In turn, “Scaffold attachment factor B1 L43W, Q15424” showed an abundance fitness of -1.09 ± 0.083.

As for “Scaffold attachment factor B1 L43Y, Q15424”, the abundance fitness is -1.22 ± 0.07.

Take “Scaffold attachment factor B1 L57A, Q15424”: the abundance fitness is -0.462 ± 0.062.

Substance “Scaffold attachment factor B1 L57D, Q15424” yielded an abundance fitness of -0.202 ± 0.061.

The substance “Scaffold attachment factor B1 L57F, Q15424” gave an abundance fitness of -1.21 ± 0.1.
